Target: the molecule itself
Experiment: cross-linking

B1: C-TSK-Myc-His expressed in Xenopus embryos (natural protein, chick, UniProt Q65Z91 20-369, looked up)
chain: KTCFPGCHCEVESFGLFDSFSLTKVDCSGIGSHIVPVPIPLDTSYLDLSSNKLETINESMLTGPGYTTLVSLDLSYNNIAKISSTTFSRLRYLESLDLSHNSLEVLPEDCFSSSPLGDIDLSNNKLLDIALDVFASKGQGKPLNVDLSNNMLSKITRNHEKSIPNIQNLNLSGNRLTSVPNLQGIPLRYLNLDGNPLAKIEKGDFKGLKGLIHLSLSGLHDFRELSPYSFKELPALQVLDLSNNPNLRSLTAEVIFGLNSIQELNLSGTGVSSLPKTVLKYLPSLKSITLRKNIQCFKTIKEGQYHRQIGLTKLGLGAEELLWCKTPCPRPVCRCRDKPLQSAPQNLPTP
With B1 as the protein, how does the “stoichiometry N” value read?
The value was 2.

Reference: publication PMC3793302 (Developmental cell, 2004)
